Here are results for one substance from patent US20210300999A1.

The target of the test is SARS-CoV-2 prefusion-stabilized trimeric spike ectodomain (S2Pecto) (SARS-CoV-2) (UniProt P0DTC2). Nature of the test: ELISA on coated antigen. Background: An ELISA detects its analyte on a solid surface through an enzyme-linked reagent.

As a reminder, the EC50 is the concentration giving half of the maximal effect. A low value points to higher potency in that assay. In the case of “rCR3022 (recombinant form of the cross-reactive SARS-CoV SRBD mAb CR3022) (antibody)”, the concentration giving a half-maximal response (EC50) turned out to be 0.0102 µg/mL.
